Data published in patent publication US20240401082A1 (Sanofi, published 2024).

T1: human complement C1s enzyme (activated C1s) (human, UniProt P09871 16-437; P09871 438-688)
T1 sequence 1: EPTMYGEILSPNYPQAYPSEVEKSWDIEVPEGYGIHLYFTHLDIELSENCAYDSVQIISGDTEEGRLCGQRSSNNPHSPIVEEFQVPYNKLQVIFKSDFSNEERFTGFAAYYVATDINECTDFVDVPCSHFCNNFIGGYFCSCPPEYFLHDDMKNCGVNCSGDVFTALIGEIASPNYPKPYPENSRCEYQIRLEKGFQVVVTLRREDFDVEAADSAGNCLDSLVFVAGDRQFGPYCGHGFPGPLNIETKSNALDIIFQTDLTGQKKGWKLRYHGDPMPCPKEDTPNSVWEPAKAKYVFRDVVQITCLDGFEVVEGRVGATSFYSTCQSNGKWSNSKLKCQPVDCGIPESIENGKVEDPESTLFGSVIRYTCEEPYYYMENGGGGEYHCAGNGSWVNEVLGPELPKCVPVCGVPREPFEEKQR
T1 sequence 2: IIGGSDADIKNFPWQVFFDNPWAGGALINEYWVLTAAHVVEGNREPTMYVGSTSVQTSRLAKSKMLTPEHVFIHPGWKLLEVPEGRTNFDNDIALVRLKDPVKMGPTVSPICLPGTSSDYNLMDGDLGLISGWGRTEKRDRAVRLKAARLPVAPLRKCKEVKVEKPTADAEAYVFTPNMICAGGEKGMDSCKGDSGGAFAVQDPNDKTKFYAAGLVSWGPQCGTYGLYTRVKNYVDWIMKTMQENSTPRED


Assays:
[1] = biological target: T1, human complement C1s enzyme (activated …); assay: cell-based or functional assay
[2] = biological target: T2, human complement factor Bb (human, UniProt P00751 260-764); assay: cell-based or functional assay
[3] = biological target: T1, human complement C1s enzyme (activated …); assay: cell-based or functional assay; remark: listed apart in the source
[4] = biological target: T2, human complement factor Bb; assay: cell-based or functional assay; remark: listed apart in the source
[5] = biological target: T1, human complement C1s enzyme (activated …); assay: cell-based or functional assay; remark: listed apart in the source
[6] = biological target: T2, human complement factor Bb; assay: cell-based or functional assay; remark: listed apart in the source
[7] = biological target: T1, human complement C1s enzyme (activated …); assay: cell-based or functional assay; remark: listed apart in the source
[8] = biological target: T2, human complement factor Bb; assay: cell-based or functional assay; remark: listed apart in the source
[9] = biological target: T1, human complement C1s enzyme (activated …); assay: BLI (Octet), biotinylated target on streptavidin sensor
Text: (§1) Bio-layer interferometry (BLI) was used to assess the recombinant proteins' target engagement to and binding affinity for complement C1s enzyme (active C1s or “C1s” herein) and factor Bb (Bb) (Complement Technology, Tyler, TX, USA). C1s and Bb were biotinylated with EZ-Link™ Sulfo-NHS-LC-LC-Biotin (Thermo Fisher, Waltham, MA, USA) according to manufacturer instructions. Biotinylated C1s or Bb was loaded on Octet® Streptavidin (SA) Biosensors (Sartorius, Göttingen, Germany), followed by a concentration range of purified proteins. To assess dual target engagement, biotinylated active C1s or Bb was loaded onto sensors, followed by purified proteins (“first association phase”), followed by the non-captured complement target (Bb or active C1s, non-biotinylated; “second association phase”). The assays were performed at 30° C. using PBS with 0.1% Tween 20 as a diluent (FIG. 3).

[10] = biological target: T2, human complement factor Bb; assay: as above
Text: as §1

[11] = biological target: T1, human complement C1s enzyme (activated …); assay: BLI (Octet), biotinylated target on streptavidin sensor; protein purified to >98%
Text: as §1

[12] = biological target: T2, human complement factor Bb; assay: as above
Text: as §1

[13] = biological target: T1, human complement C1s enzyme (activated …); assay: BLI (Octet), biotinylated target on streptavidin sensor; partially purified protein
Text: as §1
(§2) The third expression construct, construct #9 (FIGS. 2B and 21), is composed of a bidirectional minCBA promoter driving expression of separate transcripts encoding human codon-optimized αBb scFab or αC1s scFab [αC1s scFab+αBb scFab], each followed by a bGH poly (A) signal.

[14] = biological target: T2, human complement factor Bb; assay: as above
Text: as §1, §2

[15] = biological target: T1, human complement C1s enzyme (activated …); assay: SPR
[16] = biological target: T1, human complement C1s enzyme (activated …); assay: cell-based or functional assay; remark: listed apart in the source
[17] = biological target: T2, human complement factor Bb; assay: SPR
[18] = biological target: T2, human complement factor Bb; assay: cell-based or functional assay; remark: listed apart in the source

T2 sequence (P00751 260-764): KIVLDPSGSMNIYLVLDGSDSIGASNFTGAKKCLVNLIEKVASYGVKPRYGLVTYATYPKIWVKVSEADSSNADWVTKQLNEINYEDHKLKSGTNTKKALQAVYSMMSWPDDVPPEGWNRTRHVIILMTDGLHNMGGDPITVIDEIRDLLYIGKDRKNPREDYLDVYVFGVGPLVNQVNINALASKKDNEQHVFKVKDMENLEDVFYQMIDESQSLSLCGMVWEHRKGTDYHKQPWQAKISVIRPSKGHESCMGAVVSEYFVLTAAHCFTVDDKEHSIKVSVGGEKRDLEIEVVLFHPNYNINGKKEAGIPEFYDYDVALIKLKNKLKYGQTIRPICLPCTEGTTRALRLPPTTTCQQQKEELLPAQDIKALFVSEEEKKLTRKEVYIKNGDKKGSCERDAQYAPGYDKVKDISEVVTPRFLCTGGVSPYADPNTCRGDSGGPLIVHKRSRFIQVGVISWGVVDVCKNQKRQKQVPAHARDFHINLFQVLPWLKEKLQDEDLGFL

Binder	Wieslab CP IC50, fold of purified anti-C1s Fab [1] [fold]	Wieslab AP IC50, fold of purified anti-Bb Fab [2] [fold]	CP IC50 (Wieslab) [3] [nM]	AP IC50 (Wieslab) [4] [nM]	IC50 CP Wieslab EIA [5] [nM]	IC50 AP Wieslab EIA [6] [nM]	IC50 CP (Wieslab) [7] [nM]	IC50 AP (Wieslab) [8] [nM]	Kd [9] [nM]	koff [9] [s⁻¹]	kon [9] [M⁻¹ s⁻¹]	Kd [10] [nM]	koff [10] [s⁻¹]	kon [10] [M⁻¹ s⁻¹]	Kd [11] [nM]	Kd [12] [nM]	Kd [13] [nM]	Kd [14] [nM]	other results
construct #14: αC1s scFab-(G4S)2-αBb scFv-CM (bispecific antibody, Residues 1-20 were left out as the signal peptide, which is marked by boldface only) DIVLTQSPDSLAVSLGERATISCKASQSVDYDGDSYMNWYQEKPGQPPKILIYDASNLESGIPARFSGSGSGTDFTLTISSLEPEDFAIYYCQQSNEDPWTFGGGTKVEIKRTVAAPSVFIFPPSDEQLKSGTASVVCLLNNFYPREAKVQWKVDNALQSGNSQESVTEQDSKDSTYSLSSTLTLSKADYEKHKVYACEVTHQGLSSPVTKSFNRGECGGGGSGGGGSGGGGSGGGGSGGGGSGGGGSGGGGSQVQLVQSGAEVKKPGASVKLSCTASGFNIKDDYIHWVKKAPGQGLEWIGRIDPADGHTKYAPKFQVKVTITADTSTSTAYLELSSLRSEDTAVYYCARYGYGREVFDYWGQGTTVTVSSASTKGPSVFPLAPCSRSTSESTAALGCLVKDYFPEPVTVSWNSGALTSGVHTFPAVLQSSGLYSLSSVVTVPSSSLGTKTYTCNVDHKPSNTKVDKRVGGGGSGGGGSEVQLVESGGGLVKPGGSLRLSCAASGFTFSNYAMSWVREAPGKRLEWVATISNRGSYTYYPDSVKGRFTISRDNAKNSLYLQMNSLRAEDTALYYCARERPMDYWGQGTLVTVSSGGGGSGGGGSGGGGSDIQMTQSPSTLSASVGDRVTITCKASQDVGTAVAWYQKKPGKAPKLLIYWASTRHTGVPDRFSGSGSGTDFTLTISSLQAEDFAVYFCHQHSSNPLTFGQGTKLEIK	~6	~6	38.6	551	5.9	347	38.6	551	1.4	0.00049	360000	2.5	0.00017	70000	1.3	4.2	1.4	2.5	–
parental anti-C1s IgG4 antibody VH3/Vκ2 (antibody, V domains shown, IgG4, from WO 2018/071676; full chains of the mAb are not; also called anti-C1s mAb; VH3/VK2) VH: QVQLVQSGAEVKKPGASVKLSCTASGFNIKDDYIHWVKQAPGQGLEWIGRIDPADGHTKYAPKFQVKVTITADTSTSTAYLELSSLRSEDTAVYYCARYGYGREVFDYWGQGTTVTVSS VL: DIVLTQSPDSLAVSLGERATISCKASQSVDYDGDSYMNWYQQKPGQPPKILIYDASNLESGIPARFSGSGSGTDFTLTISSLEPEDFAIYYCQQSNEDPWTFGGGTKVEIK	–	–	–	–	–	–	–	–	–	–	–	–	–	–	–	–	–	–	Kd [15]: 1.5 nM; Wieslab classical pathway IC50 [16]: 22 nM
construct #12: αBb scFab-(G4S)3-αC1s scFab-CM (bispecific antibody, Residues 1-20 were left out as the signal peptide, which is marked by boldface only) DIQMTQSPSTLSASVGDRVTITCKASQDVGTAVAWYQKKPGKAPKLLIYWASTRHTGVPDRFSGSGSGTDFTLTISSLQAEDFAVYFCHQHSSNPLTFGQGTKLEIKRTVAAPAVFIFPPSDEQLKSGTASVVCLLKNFYPREAKVQWKVDNALQSGNSQESVTEQDSKDSTYSLSSTLTLSKADYEKHKVYACEVTHQGLSSPVTKSFNRGECGGGGSGGGGSGGGGSGGGGSGGGGSGGGGSGGGGSEVQLVESGGGLVKPGGSLRLSCAASGFTFSNYAMSWVREAPGKRLEWVATISNRGSYTYYPDSVKGRFTISRDNAKNSLYLQMNSLRAEDTALYYCARERPMDYWGQGTLVTVSSASTKGPSVFPLAPCSRSTSESTAALGCLVKDYFPEPVTVSWNSGALTSGVHTFPAVLQSSGLYSLSSVVEVPSSSLGTKTYTCNVDHKPSNTKVDKRVGGGGGSGGGGSGGGGSDIVLTQSPDSLAVSLGERATISCKASQSVDYDGDSYMNWYQEKPGQPPKILIYDASNLESGIPARFSGSGSGTDFTLTISSLEPEDFAIYYCQQSNEDPWTFGGGTKVEIKRTVAAPSVFIFPPSDEQLKSGTASVVCLLNNFYPREAKVQWKVDNALQSGNSQESVTEQDSKDSTYSLSSTLTLSKADYEKHKVYACEVTHQGLSSPVTKSFNRGECGGGGSGGGGSGGGGSGGGGSGGGGSGGGGSGGGGSQVQLVQSGAEVKKPGASVKLSCTASGFNIKDDYIHWVKKAPGQGLEWIGRIDPADGHTKYAPKFQVKVTITADTSTSTAYLELSSLRSEDTAVYYCARYGYGREVFDYWGQGTTVTVSSASTKGPSVFPLAPCSRSTSESTAALGCLVKDYFPEPVTVSWNSGALTSGVHTFPAVLQSSGLYSLSSVVTVPSSSLGTKTYTCNVDHKPSNTKVDKRV	~14	~7	84.4	702	10.4	428	84.4	702	3.6	0.00065	180000	6.6	0.00055	80000	5.4	1.5	3.6	6.6	–
parental anti-Bb IgG4 antibody VH6/Vκ7-IgG4v2 (antibody, V domains shown, IgG4 (IgG4v2), from U.S. Pat. No. 11,242,382 and WO 2021/216458; full chains of the mAb are not; also called anti-Bb mAb) VH: EVQLVESGGGLVKPGGSLRLSCAASGFTFSNYAMSWVRQAPGKRLEWVATISNRGSYTYYPDSVKGRFTISRDNAKNSLYLQMNSLRAEDTALYYCARERPMDYWGQGTLVTVSS VL: DIQMTQSPSTLSASVGDRVTITCKASQDVGTAVAWYQQKPGKAPKLLIYWASTRHTGVPDRFSGSGSGTDFTLTISSLQAEDFAVYFCHQHSSNPLTFGQGTKLEIK	–	–	–	–	–	–	–	–	–	–	–	–	–	–	–	–	–	–	Kd [17]: 7.3 nM; Wieslab alternative pathway IC50 [18]: 190 nM
